Experimental data reported in patent publication US20150369821A1 (Pieris, published 2015).

T1: non-modified Hepcidin-25 (human, not fully specified)
T1 construct: also called Hepc25; mature human hepcidin
T1 peptide: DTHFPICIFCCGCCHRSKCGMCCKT


Columns and labels:
[1] = target: T1, non-modified Hepcidin-25; experiment: competition ELISA, non-modified Hepcidin-25 in solution (25 pM)
[2] = target: T1, non-modified Hepcidin-25; experiment: cell-based or functional assay

| IC50 [1] | In Vitro Neutralization Activity Assay, IC50 [nM] (cell-based hepcidin-induced internalization of ferroportin-GFP) [2] | Binder |
| --- | --- | --- |
| 0.1 nM | 31 nM | hepcidin-specific lipocalin mutein of SEQ ID NO: 10 (designed binder, Mutein of human NGAL (lipocalin 2); also called hNGAL mutein) QDSTSDLIPAPPLSKVPLQQNFQDNQFHGKWYVVGLAGNEILREDKDPMKMWATIYELKEDRSYNVTIVMFLAKKCEYLFQTFVPGSQPGEFTLGDIKSSPGRTSGLVRVVSTNYNQHAMVFFKVVWQNREVFWITLYGRTKELTPELKENFIRFSKSLGLPENHIVFPVPIDQCIDGF |
| 0.18 nM | 25 nM | hepcidin-specific lipocalin mutein of SEQ ID NO: 8 (designed binder, Mutein of human NGAL (lipocalin 2); also called hNGAL mutein) QDSTSDLIPAPPLSKVPLQQNFQDNQFHGKWYVVGLAGNEVLREDKDPMKMWATIYELKEDKSYNVTIVMPLAEKCEYLFQTFVPGSQPGEFTLGGIKSGPGRTSGLVRVVSTNYNQHAMVFFKVVWQNREVFWVTLYGRTKELTSELKENFIRFSKSLGLPENHIVFPVPIDQCIDG |
